Results on two molecules are retold here after patent US20210101973A1 (NGM BIOPHARMACEUTICALS, published 2021).

The target in the experiment is T1, synthetic LEAP2 peptide (mature peptide of human LEAP2) (human).
T1 peptide: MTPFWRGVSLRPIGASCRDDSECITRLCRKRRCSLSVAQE
In words: cell-based or functional assay.

B1: anti-LEAP2 monoclonal antibody M18 (antibody, V domains shown)
VH: EIQLQQSGPELMKPGASVKISCKASGYSFTNYYIHWVKQSHGKSLEWIGYIDPFNGGTNYNQKFKGKATLTVDKSSSTAYMHLSSLTFEDSAVYYCARRGYYYGFTYWGQGTLVTVSA
VL: DIVLTQSPASLAVSLGQRATISCKASQSVDYDGDSYMNWYQQKPGQPPKLLIYTASNLESGIPARFSGSGSGTDFTLNIHPVEEEDAATYYCQQSNEDPYTFGGGTKLEIK
Regarding B1, the “EC50 of blocking LEAP2 inhibition of GHSR activity (antibody mixed with LEAP2, antagonist format, GHSR-stable cell line)” value was determined as 680 nM.

B2: anti-LEAP2 monoclonal antibody M1/M2 (antibody, V domains shown)
VH: EVQLQQSGTVLARPGASVKMSCKASGYTFTSYWMHWVKQRPGQGLEWIGAIYPGNSDTSYKQKFKGKAKLTAVTSASTVYMELSSLTDEDSAVYYCTYGKEEYLFAMDYWGQGTSVTVSS
VL: not shown
In the case of B2, the “EC50 of blocking LEAP2 inhibition of GHSR activity (antibody mixed with LEAP2, antagonist format, GHSR-stable cell line)” value stood at 170 nM.
